Laboratory results: the RNAGym collection of RNA variant scans (doi:10.7554/elife.90254)

B1: LINE1-full (parent)
chain: UACGUAGGUGGUUUUCCCCUGAUAGUGCUAAGGGGGCCUGGAAGUUUGGACUGGGCAGAGCUCAACACAGCGUGGCAAAGUGGCUGUGGCUAGACUGCCUCUCUGGAUUCCUCGUCACUCAGCAGGGCAUCUCUGAGAGAAAUGCC

Variants of: B1
Experiment: self-cleavage, relative activity (ratio to wild type); higher = more cleavage; in vitro, sequencing; the parent is a self-cleaving ribozyme

Variant	self-cleavage
U20A U109C	1.25
U46C A107U	1.53
C113G C123U	1.01
U9C A77G	1.92
U85A U87G	0.07
C68U U115A	0.2
U23C U39C	0.87
A30G A42G	0.9
A69G A141G	0.44
C61A A94G	0.04
U29C G44C	1.82
U29A U52C	1.3
G40A U100C	1.59
C90G U134A	0.03
U96A A138U	0.1
A6G C98U	0.42
U45C A65G	0.04
U87A A140G	0.07
U23C C51U	0.97
U23C A65G	0.1
A69G U102C	0.47
U46C U91A	0.53
U62G U115C	0
A59G U143G	0.03

Variant	self-cleavage
G10A U52C	0.62
A43U A142G	1.24
A78U G114A	1.75
G58U A136G	0.01
U15C U143A	1.55
U47A G82A	2.27
G36U A140G	1.18
U29C U130G	1.84
G7U A107G	1.36
A107U U112A	2.03
A77G U102C	1.96
U52A A124G	1.07
U15C U73G	1.18
G58A U134C	0.01
G97U U108C	0.06
G48A U143A	1.64
U29A U119C	0.97
A138C	0.76
U62C A67G	0.09
A57G C98U	0.19
A2G C76U	1.17
U47A A138U	1.59
C71U U109A	0.41
C3U U119A	0.83

Variant	self-cleavage
U47A U52A	1.84
U115C A136U	1.99
G105C A140G	1.83
G60A C68U	0.03
A78G U143A	1.11
U45C A77U	1.29
U62G A138C	0.09
G139A A142G	1.15
G135U	1.22
G114A A136U	2.15
A24U A121U	0.55
U112A U115C	1.3
U130C A136U	1.63
C116U A121G	1.57
G7A C111U	0.35
U20C C110A	0.41
U9A C113A	0.39
U13C U15C	1.03
G8A A59G	0.16
G58U U143C	0.07
U5C A129C	1.69
A42G U115A	1.24
U26C U91C	0.73
U87A G106C	0.08

Variant	self-cleavage
G70A U85G	0.01
C84G C146A	0.1
U96A U132C	0.12
A64U C116A	0.37
A24G C116U	0.65
U9A U62A	0.12
G32A A69G	0.37
U12C G58A	0.09
A107G C116A	1.71
U29C U52C	1.84
U52A U62A	0.05
U15A U91C	0.44
G7A A124G	0.6
C38U C84G	0.09
A136G G144A	0.88
A121U U143G	2
U39A C98U	0.45
U9C U87G	0.69
A78G C113U	0.93
U73G U96C	0
U13C G135A	0.75
U9A A78G	1.13
A2G A92G	0
A78U U100C	2.81

Variant	self-cleavage
C3A A67G	0.56
U52A U100C	1.96
G8A C38U	1.41
G8A U14C	1.32
U85G U119A	0.19
G75A A129U	1.13
A78G G86U	0.08
U20G A78G	1.1
U1C A141U	0.71
U91C A140G	0.75
C3U U87A	0.18
A59U A124U	0.68
A121U U132A	1.36
U26C U104A	1.13
U20C U130C	1.77
U46C A141G	1.41
U119C C145U	1.25
U14A A31G	0.89
U115A	1.36
U46C U109C	1.41
C123A A140G	1.42
U20C G41A	1.27
G48U A64G	0.18
G89A A141U	0.02

Variant	self-cleavage
A92G A136U	0.05
U39C A69U	0.06
G49A U102C	1.11
U62C C101U	0.07
A78C C90U	0.03
U1C U52G	1.33
A24U U115A	1.54
C3A U39A	0.96
A65G A121U	0.04
A67G G114C	0.49
U26G U47C	1.16
U81C A94G	0.37
A121U U134C	1.35
C3U U26C	1.01
A6U U47C	0.8
U132A A136G	1.79
U26A U119A	0.78
U102C A142G	1.53
C17U U112C	1.49
U104C C113A	2.01
U39C U130G	1.75
U14G A77G	0.57
A6G A57G	0.64
C16U A121U	1.36

Variant	self-cleavage
U15C A124C	0.86
A117U U132G	1.99
U5A U47A	0.59
A2G A42G	0.72
U104C U115C	1.92
U29A U62C	0
A42G A79G	1.37
A22U A43U	1.43
U73C U85G	0.21
U29A G72A	1.13
C76U G105C	2.51
U91G A94G	0
A6U A92G	0.27
A67U A142G	0.15
U26C U46G	1.62
C66U A141G	0.03
U45C C66U	0.04
U104G U130C	0.75
U29C U47C	1.85
U73C C131U	1.73
U1A A43G	0.81
U39C G54A	0.58
G35U U46A	1.07
